Target: T1, BMC08 (uncultured bacterium (metagenome))
T1 chain: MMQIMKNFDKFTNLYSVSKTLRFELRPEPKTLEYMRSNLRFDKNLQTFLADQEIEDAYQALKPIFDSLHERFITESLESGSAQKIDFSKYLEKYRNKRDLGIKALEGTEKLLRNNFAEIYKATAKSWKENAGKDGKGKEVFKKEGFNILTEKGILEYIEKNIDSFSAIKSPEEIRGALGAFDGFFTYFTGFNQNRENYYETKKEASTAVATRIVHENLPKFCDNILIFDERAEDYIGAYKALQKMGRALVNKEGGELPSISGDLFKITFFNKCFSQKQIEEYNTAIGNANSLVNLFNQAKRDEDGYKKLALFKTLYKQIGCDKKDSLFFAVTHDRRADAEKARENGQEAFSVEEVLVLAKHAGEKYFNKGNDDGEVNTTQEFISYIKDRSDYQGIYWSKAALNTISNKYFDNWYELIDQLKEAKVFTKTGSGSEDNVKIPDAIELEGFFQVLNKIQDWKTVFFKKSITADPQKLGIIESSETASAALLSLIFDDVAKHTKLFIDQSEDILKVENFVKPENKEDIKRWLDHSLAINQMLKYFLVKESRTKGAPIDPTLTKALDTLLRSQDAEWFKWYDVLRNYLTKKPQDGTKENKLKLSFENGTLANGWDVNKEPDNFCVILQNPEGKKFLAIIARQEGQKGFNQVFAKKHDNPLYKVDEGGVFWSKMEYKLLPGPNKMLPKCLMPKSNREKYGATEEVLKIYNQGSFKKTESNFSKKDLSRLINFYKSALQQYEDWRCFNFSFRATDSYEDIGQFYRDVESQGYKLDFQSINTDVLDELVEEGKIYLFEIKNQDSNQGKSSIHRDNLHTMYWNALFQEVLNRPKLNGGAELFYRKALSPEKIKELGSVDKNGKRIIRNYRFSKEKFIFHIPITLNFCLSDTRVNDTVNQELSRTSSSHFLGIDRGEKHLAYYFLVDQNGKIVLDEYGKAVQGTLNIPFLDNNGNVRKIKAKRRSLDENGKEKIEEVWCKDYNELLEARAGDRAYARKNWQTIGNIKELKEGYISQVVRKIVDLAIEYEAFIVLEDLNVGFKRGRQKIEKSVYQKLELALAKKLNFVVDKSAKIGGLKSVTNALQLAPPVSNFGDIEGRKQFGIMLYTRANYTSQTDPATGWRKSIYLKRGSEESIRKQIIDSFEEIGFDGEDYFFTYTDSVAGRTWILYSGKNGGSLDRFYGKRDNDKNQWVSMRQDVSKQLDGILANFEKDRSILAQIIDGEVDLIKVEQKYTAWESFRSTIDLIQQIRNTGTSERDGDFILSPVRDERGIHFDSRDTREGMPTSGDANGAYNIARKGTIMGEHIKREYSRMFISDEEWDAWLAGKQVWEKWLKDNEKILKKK
Experiment: cell_activity; PAM not stated; E. coli depletion, 30 C
How it was run: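 E. coli carrying arabinose-induced (0.2%) BMC nuclease, grown at 30° C., made electrocompetent and electroporated with 50-100 ng plasmid carrying gRNA against malQ. Transformants plated on selective M9-glucose agar with kanamycin/ampicillin (± nourseothricin), and growth scored after 48 h at 30° C.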

B1: malQ gRNA (BMC stem-loop + 24 nt spacer) ; malQ protospacer (ssRNA ; dsDNA)
RNA: GAUUUCUACUAUUGUAGAUGUGGCGGUACGUUGAUGCAUCGCG
DNA 1: GTGGCGGTACGTTGATGCATCGCG
DNA 2: CGCGATGCATCAACGTACCGCCAC
  activity: > 99.9 % colony reduction
